Publication PMC9445877, “Blockade of TMPRSS2-mediated priming of SARS-CoV-2 by lactoferricin” (Frontiers in Immunology, 2022)
Entries after “also recorded” stand apart in the source; their conditions may differ.

Assays:
[1] = target: T1, TMPRSS2 (Homo sapiens, UniProt O15393); assay: In vitro proteolysis assay, TMPRSS2, fluorogenic substrate Boc-Gln-Ala-Arg-AMC; assay type: biochemical
T1 construct: TMPRSS2 (25 nM; recombinant protein produced in mammalian cells; #MBS1193731, MyBioSource, San Diego, CA); purchased MyBioSource, San Diego, CA #MBS1193731; host or cells: mammalian cells
Experimental: (§1) Figure 1 Effect of LF and the LF-derived peptides pLF1-pLF3 on the activity of serine proteases. Proteolytic activities of purified TMPRSS2 (A), plasmin (B), elastase (C), and trypsin (D) were measured with or without peptides pLF1, pLF2, pLF3, LF or the control peptide pCTR at 37°C in Tris-HCl buffer using the fluorogenic substrate Boc-Gln-Ala-Arg-AMC. The reaction was monitored using an ELISA reader for the indicated time intervals.
(§2) The proteolytic activities of plasmin (10 nM; from human plasma; #10602361001, Roche Diagnostics GmbH, Mannheim, Germany), trypsin (10 nM; from bovine pancreas; #T1005, Sigma-Aldrich, St. Louis, MO), elastase (20 nM; from porcine pancreas; #E1250, Sigma-Aldrich) and TMPRSS2 (25 nM; recombinant protein produced in mammalian cells; #MBS1193731, MyBioSource, San Diego, CA) were measured in a Nunc black fluorescence-based cell assay plate (Sigma-Aldrich) in Tris-HCl buffer (20 mM, pH 8.0, 150 mM NaCl). […] The reaction was measured using an ELISA plate reader (Synergy H1 BioTek microplate reader, Winooski, Vermont, U.S., or TECAN GENios, GMI, USA) under the excitation wavelength of 380 nm and the emission wavelength of 460 nm at the indicated time points.

[2] = target: T2, plasmin (Homo sapiens, UniProt P00747); assay: In vitro proteolysis assay, plasmin; assay type: biochemical; conditions: 37°C
T2 construct: purchased Roche Diagnostics GmbH, Mannheim, Germany #10602361001; host or cells: human plasma
Experimental: as §1
as §2, with “points. […]” for “points.”

[3] = test system: elastase; assay: In vitro proteolysis assay, elastase; assay type: biochemical, porcine; conditions: elastase 20 nM; 37°C, Tris-HCl buffer, Boc-Gln-Ala-Arg-AMC
Experimental: as §1, §2

[4] = test system: SARS-CoV-2 infection, Vero cells; assay type: cell-based, SARS-CoV-2 (African green monkey cells); conditions: 40 µg/mL, pre-incubation 40-60 min, mean of three independent experiments
[5] = test system: SARS-CoV-2 infection, Calu-3 cells; assay type: cell-based, SARS-CoV-2 (human cells); conditions: concentration not given, pre-incubation approx. 1 h, four independent experiments
[6] = test system: SARS-CoV-2; assay type: cell-based; conditions: summary statement
[7] = test system: COVID-19; conditions: supplementary LF treatment; cited from earlier work
Source text: (§3) The human glycoprotein LF is synthetized by exocrine glands and is present at high concentrations in secretory body fluids, particularly in milk, but also within inflammatory granules of neutrophils. […] This effect was mainly attributed to its immunomodulatory properties ([26]).

[8] = test system: SARS-CoV-2; conditions: cited from earlier work
Source text: as §3

[9] = test system: plasminogen; conditions: cited from earlier work
Source text: Since structures of the catalytic domains of serine proteases display a high level of identity ([10]), we have tested the inhibitory effect of LF and three LF-derived synthetic peptides against other serine proteases, including TMPRSS2, elastase and trypsin, in addition to plasmin. […] In contrast, uPA-independent Plg conversion by the bacterial enzyme streptokinase was not affected by LF ([11]). […] Similarly, only pLF1 but neith ...

[10] = test system: SARS-CoV-1; conditions: cited from earlier work
[11] = cited from earlier work
[12] = test system: SARS-CoV-2; conditions: cited from earlier work; remark: listed apart in the source
[13] = cited from earlier work; remark: listed apart in the source

T1 sequence (O15393 256-492 limits assumed): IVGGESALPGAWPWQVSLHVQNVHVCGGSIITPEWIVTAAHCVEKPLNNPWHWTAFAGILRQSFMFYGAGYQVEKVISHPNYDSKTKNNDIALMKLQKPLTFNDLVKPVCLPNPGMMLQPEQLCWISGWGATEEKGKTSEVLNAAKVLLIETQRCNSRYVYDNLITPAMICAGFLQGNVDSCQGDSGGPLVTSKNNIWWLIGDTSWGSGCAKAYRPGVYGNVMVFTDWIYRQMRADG
T1 sequence (O15393 106-255 limits assumed): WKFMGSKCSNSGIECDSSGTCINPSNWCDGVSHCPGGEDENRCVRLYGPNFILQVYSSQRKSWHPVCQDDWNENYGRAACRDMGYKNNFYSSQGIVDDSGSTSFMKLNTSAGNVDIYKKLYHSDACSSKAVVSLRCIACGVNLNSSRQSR
T2 sequence (P00747 581-810 limits assumed): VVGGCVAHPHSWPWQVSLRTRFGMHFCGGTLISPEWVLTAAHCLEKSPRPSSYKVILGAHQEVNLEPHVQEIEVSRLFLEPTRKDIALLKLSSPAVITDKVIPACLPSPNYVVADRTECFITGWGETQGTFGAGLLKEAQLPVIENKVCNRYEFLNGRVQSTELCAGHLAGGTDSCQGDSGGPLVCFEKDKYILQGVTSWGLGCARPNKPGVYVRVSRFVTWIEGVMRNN
T2 sequence (P00747 97-580 limits assumed): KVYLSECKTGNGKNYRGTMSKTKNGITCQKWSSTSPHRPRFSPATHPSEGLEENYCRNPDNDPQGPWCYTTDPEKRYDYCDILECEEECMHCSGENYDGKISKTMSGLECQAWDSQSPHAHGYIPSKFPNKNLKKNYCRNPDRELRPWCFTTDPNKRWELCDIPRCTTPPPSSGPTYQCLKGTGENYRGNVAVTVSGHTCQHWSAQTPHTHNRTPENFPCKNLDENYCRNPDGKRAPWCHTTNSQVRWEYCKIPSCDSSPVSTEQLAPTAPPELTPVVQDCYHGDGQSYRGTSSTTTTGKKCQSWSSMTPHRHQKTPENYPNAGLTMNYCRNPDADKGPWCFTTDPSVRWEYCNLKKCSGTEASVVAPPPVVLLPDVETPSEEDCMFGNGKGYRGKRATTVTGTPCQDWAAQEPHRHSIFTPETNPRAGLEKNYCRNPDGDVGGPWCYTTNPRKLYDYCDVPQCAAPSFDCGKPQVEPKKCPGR

B1: LF: human milk glycoprotein lactoferrin; recombinant human LF (L1294, Sigma-Aldrich) (protein, UniProt P02788 1-710, looked up)
chain: MKLVFLVLLFLGALGLCLAGRRRSVQWCAVSQPEATKCFQWQRNMRKVRGPPVSCIKRDSPIQCIQAIAENRADAVTLDGGFIYEAGLAPYKLRPVAAEVYGTERQPRTHYYAVAVVKKGGSFQLNELQGLKSCHTGLRRTAGWNVPIGTLRPFLNWTGPPEPIEAAVARFFSASCVPGADKGQFPNLCRLCAGTGENKCAFSSQEPYFSYSGAFKCLRDGAGDVAFIRESTVFEDLSDEAERDEYELLCPDNTRKPVDKFKDCHLARVPSHAVVARSVNGKEDAIWNLLRQAQEKFGKDKSPKFQLFGSPSGQKDLLFKDSAIGFSRVPPRIDSGLYLGSGYFTAIQNLRKSEEEVAARRARVVWCAVGEQELRKCNQWSGLSEGSVTCSSASTTEDCIALVLKGEADAMSLDGGYVYTAGKCGLVPVLAENYKSQQSSDPDPNCVDRPVEGYLAVAVVRRSDTSLTWNSVKGKKSCHTAVDRTAGWNIPMGLLFNQTGSCKFDEYFSQSCAPGSDPRSNLCALCIGDEQGENKCVPNSNERYYGYTGAFRCLAENAGDVAFVKDVTVLQNTDGNNNEAWAKDLKLADFALLCLDGKRKPVTEARSCHLAMAPNHAVVSRMDKVERLKQVLLHQQAKFGRNGSDCPDKFCLFQSETKNLLFNDNTECLARLHGKTTYEKYLGPQYVAGITNLKKCSTSPLLEACEFLRK
modifications: full-length
[1]; 37°C, Tris-HCl buffer, Boc-Gln-Ala-Arg-AMC
  inhibition of proteolytic activity of TMPRSS2 (in words): not able to block TMPRSS2 activity; also recorded: neither full-length LF nor pCTR inhibited; also recorded: did not block TMPRSS2 activity; also recorded: neither full-length LF nor other tested peptides derived from LF, nor the control peptide pCTR, significantly reduced
[1]; Figure 1A inset
  dose dependence of inhibition of TMPRSS2 (in words): no dose-dependent inhibition; also recorded: not by LF
[2]; Figure 1B inset: S-2251 in PBS
  dose dependence of inhibition of active plasmin (in words): no dose-dependent inhibition; also recorded: not by LF
[2]; plasmin 10 nM, Tris-HCl buffer, Boc-Gln-Ala-Arg-AMC
  inhibition of proteolytic activity of plasmin (in words): neither full-length LF nor a control peptide (pCTR), was able to inhibit; also recorded: neither full-length LF nor other tested peptides derived from LF, nor the control peptide pCTR, significantly reduced
[3]
  inhibition of proteolytic activity of elastase (in words): neither full-length LF nor other tested peptides derived from LF, nor the control peptide pCTR, significantly reduced
[4]
  inhibition of SARS-CoV-2 infection, Vero cells, 40 µg/mL: ≈ 38%
[5]
  inhibition of SARS-CoV-2 infection, Calu-3 cells: 60-70%
[6]
  SARS-CoV-2 infection of permissive cells (in words): prevented SARS-CoV-2 infection
[7]
  COVID-19 symptoms in clinical study (in words): significantly reduced COVID-19 symptoms
[8]
  SARS-CoV-2 infection in vitro (in words): found to inhibit SARS-CoV-2 infection in vitro
[9]
  binding to plasminogen (in words): binds to Plg via its highly cationic N-terminal region; also recorded: bound to Plg via its highly cationic N-terminal region
  inhibition of plasminogen conversion to plasmin (in words): able to inhibit activation of Plg through hindering the action of urokinase-type plasminogen activator (uPA); also recorded: blocked Plg conversion to the active serine protease plasmin
[9]; streptokinase as activator
  uPA-independent plasminogen conversion by streptokinase (in words): not affected
[10]
  SARS-CoV-1 infection (in words): inhibited the SARS-CoV-1 infection
[11]
  binding to heparin and HSPGs (in words): LF binding to both heparin and HSPGs was observed
[12]
  interferon responses (in words): enhancement of interferon responses
  iron homeostasis (in words): maintenance of iron homeostasis
  viral replication (in words): inhibition of viral replication
[13]; in vivo, po
  clinical benefit, oral (in words): major clinical benefit in human, particularly neonatal medicine
[13]; orally administered
  safety, oral (in words): considered safe and without adverse effects
